Measurements published in article PMC5027585, “TSPO ligands stimulate ZnPPIX transport and ROS accumulation leading to the inhibition of P. falciparum growth in human blood” (Scientific Reports, 2016).
Values joined by “and” are separate entries in the source; they are usually repeats but may differ in a detail not shown here. Identical values can stand only once.

Target: the molecule itself
Test: SDS-PAGE and immunoblot (SDS-resistant forms); ghosts of healthy and infected RBCs in 5P8 buffer, solubilised in 1% Triton X-100, denaturing SDS-PAGE, immunoblot; oligomeric state read from the size of the bands

B1: TranSlocator PrOtein 2 (TSPO2) (natural protein, human (endogenous in red blood cells), UniProt Q5TGU0 1-170, looked up)
chain: MRLQGAIFVLLPHLGPILVWLFTRDHMSGWCEGPRMLSWCPFYKVLLLVQTAIYSVVGYASYLVWKDLGGGLGWPLALPLGLYAVQLTISWTVLVLFFTVHNPGLALLHLLLLYGLVVSTALIWHPINKLAALLLLPYLAWLTVTSALTYHLWRDSLCPVHQPQPTEKSD
notes: TSPO2, human, second TSPO isoform, endogenous in mature red blood cells; detected with a rabbit antibody against the 13 C-terminal residues of hTSPO2; also called hTSPO2; source: endogenous, human red blood cell membranes (ghosts) or Triton X-100 lysate of healthy and P. falciparum-infected RBCs
  stoichiometry N: 4 and 2
